Tested on: HfqBc (Hfq6) (Burkholderia cenocepacia J2315)
Test: EMSA
Details: no MtvR; complexes seen only at 500 nM HfqBc or higher; excess yeast tRNA; 20 mM Tris-Cl pH 8.0, 1 mM DTT, 1 mM MgCl2, 10 mM KCl, 10 mM KH2PO4, excess yeast tRNA, 30 min at 25 C; native 8% PAGE with 10% glycerol

hfqEc full mRNA (5'-UTR + CDS) was tested, and the Kd was 11.6 µM.

Reference: publication PMC4046987
